Tested on: peptide library, one residue held at a place counted from the Y acceptor
Test: relative phosphorylation of the sub-library (ratio to the mean residue at this position); higher = residue favoured
How it was run: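 Biotinylated Tyr-centred peptide library mixtures, each fixing one residue at one position from −5 to +5, were incubated with purified recombinant kinases in 384-well plates for 90 min with 50 μM ATP plus γ-32P-ATP. Streptavidin membranes captured the peptides, which were rinsed and quantified by phosphorimaging and ImageQuant. At each position, intensities were divided by the sum of the 18 randomized residues (16 for the Ser/Thr-free library) and multiplied by that number. Each value is phosphorylation relative to the mean randomized residue.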

Sequence of TESK1, construct: aa1-345, human (Q15569 1-345, looked up): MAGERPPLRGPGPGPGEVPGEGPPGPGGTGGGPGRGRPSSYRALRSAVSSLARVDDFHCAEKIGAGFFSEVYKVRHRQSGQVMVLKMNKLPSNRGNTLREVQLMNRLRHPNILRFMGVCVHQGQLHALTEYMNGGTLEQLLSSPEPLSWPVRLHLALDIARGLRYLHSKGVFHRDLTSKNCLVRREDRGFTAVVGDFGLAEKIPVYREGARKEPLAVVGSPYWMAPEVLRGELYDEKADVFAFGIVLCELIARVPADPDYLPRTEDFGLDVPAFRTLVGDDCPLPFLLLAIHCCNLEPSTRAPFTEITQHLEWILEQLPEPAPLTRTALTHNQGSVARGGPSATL

TESK1, construct: aa1-345, human (from UniProt Q15569)
relative phosphorylation
Conditions	at +1	at +2	at +3	at +4	at +5	at -1	at -2	at -3	at -4	at -5
A fixed	0.921	0.778	0.879	0.762	0.876	0.971	0.967	0.874	0.973	0.938
D fixed	0.992	0.998	0.881	0.902	0.794	0.977	0.822	0.931	0.858	0.85
E fixed	0.876	0.917	0.871	0.854	0.839	0.953	0.833	0.776	0.792	0.742
F fixed	0.935	1.11	0.936	0.966	0.869	0.778	0.911	0.926	0.984	0.883
G fixed	0.887	0.899	0.928	1.03	0.915	1	1.09	1.11	1.13	1.05
H fixed	1.01	1.09	1.06	1.07	1.17	0.962	0.976	0.915	0.949	0.975
I fixed	0.796	0.626	0.682	0.781	0.734	0.774	0.952	0.79	0.823	0.861
K fixed	1.13	1.27	1.23	1.3	1.15	1.18	1.34	1.25	1.26	1.35
L fixed	0.81	0.812	0.783	0.913	0.807	0.831	0.92	0.918	0.816	0.862
M fixed	0.76	0.796	0.831	0.928	0.841	0.835	0.81	0.846	0.869	0.82
N fixed	1.05	1.16	1.11	0.978	0.964	1.17	1.01	0.971	0.921	0.964
P fixed	1.02	1.09	1.15	1.28	1.05	1.26	1.07	1.36	1.16	1.1
Q fixed	1.09	1.09	1.02	1.09	0.929	1	0.842	1.04	0.891	0.831
R fixed	1.18	1.25	1.23	1.19	1.27	1.26	1.27	1.29	1.2	1.27
V fixed	0.817	0.69	0.72	0.764	0.713	0.743	0.946	0.864	0.875	0.881
W fixed	1.72	1.44	1.69	1.19	2.09	1.29	1.24	1.14	1.5	1.62
pThr fixed	0.988	0.893	0.765	0.809	0.615	1.05	0.932	0.934	0.929	0.776
pTyr fixed	0.746	0.819	0.738	0.714	0.627	0.861	0.798	0.896	0.669	0.711

— the supplement of paper PMC11136658
